# Tests used:
# [1] = target: carcinoembryonic antigen (CEA) (UniProt P06731); assay: SEC-HPLC shift; the labeled Fab in serum without CEA eluted at 10.331 min
# [2] = target: somatostatin receptors on AR42J cells (rat); assay: competition with ^111In(DTPA-octreotide) on AR42J cells, apparent IC50
# [3] = target: binding target of the bombesin analog IMP493 (not named in the paragraph); assay: assay not described
# [4] = target: gastrin-releasing peptide receptor on PC-3 cells (UniProt P30550); assay: competition with ^125I-BBN on PC-3 cells, repeat experiment
# gastrin-releasing peptide receptor on PC-3 cells, sequence (P30550 whole entry): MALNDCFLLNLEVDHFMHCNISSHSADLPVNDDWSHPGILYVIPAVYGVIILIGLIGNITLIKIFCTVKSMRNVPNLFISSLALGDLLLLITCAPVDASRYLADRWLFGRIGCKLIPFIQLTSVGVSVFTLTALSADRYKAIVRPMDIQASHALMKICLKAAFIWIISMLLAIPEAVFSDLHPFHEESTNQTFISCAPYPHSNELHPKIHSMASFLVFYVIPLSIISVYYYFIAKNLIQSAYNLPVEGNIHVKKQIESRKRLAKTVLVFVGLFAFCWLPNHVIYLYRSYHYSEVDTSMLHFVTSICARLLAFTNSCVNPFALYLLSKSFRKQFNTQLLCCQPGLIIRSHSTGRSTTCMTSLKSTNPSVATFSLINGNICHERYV
# somatostatin receptors on AR42J cells (rat), sequence (P30680 whole entry): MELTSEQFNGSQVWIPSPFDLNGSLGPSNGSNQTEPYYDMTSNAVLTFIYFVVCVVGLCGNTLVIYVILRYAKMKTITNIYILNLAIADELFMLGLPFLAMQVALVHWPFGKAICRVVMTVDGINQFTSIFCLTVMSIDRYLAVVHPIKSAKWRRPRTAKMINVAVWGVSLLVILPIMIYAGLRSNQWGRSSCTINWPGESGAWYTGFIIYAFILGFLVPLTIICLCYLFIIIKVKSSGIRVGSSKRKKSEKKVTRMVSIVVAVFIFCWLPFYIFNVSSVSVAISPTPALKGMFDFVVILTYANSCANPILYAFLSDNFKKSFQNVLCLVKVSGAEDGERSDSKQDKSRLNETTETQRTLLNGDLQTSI
# carcinoembryonic antigen (CEA), sequence (P06731 35-685 limits assumed): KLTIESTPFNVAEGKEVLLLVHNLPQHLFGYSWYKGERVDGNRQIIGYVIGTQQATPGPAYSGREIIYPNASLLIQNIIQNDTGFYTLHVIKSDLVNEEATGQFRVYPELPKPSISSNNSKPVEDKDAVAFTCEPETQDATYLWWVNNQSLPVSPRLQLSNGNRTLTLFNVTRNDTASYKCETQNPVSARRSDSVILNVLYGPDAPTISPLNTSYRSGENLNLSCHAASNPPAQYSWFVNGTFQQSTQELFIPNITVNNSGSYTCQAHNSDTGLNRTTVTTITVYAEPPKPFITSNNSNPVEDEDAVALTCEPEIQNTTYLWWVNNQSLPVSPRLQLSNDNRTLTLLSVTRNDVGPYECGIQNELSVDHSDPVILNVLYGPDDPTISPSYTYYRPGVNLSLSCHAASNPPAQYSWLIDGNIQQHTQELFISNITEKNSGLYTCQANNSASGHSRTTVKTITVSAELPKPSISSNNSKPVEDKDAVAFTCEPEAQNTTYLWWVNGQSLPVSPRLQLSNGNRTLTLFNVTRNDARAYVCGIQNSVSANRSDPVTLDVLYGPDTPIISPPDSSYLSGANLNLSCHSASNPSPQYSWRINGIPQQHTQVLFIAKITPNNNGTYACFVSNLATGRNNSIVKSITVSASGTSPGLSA
substance,measurement,setting,value
Al^18F(NODA-MPAES)-hMN-14 Fab′,SEC-HPLC retention time of major product after adding CEA,[1],7.21 min
Al^19F(IMP466) (Al^19F complex of NOTA-D-Phe-Cys-Phe-D-Trp-Lys-Thr-Cys-Throl) (peptide),IC50,[2],3.6 nM
^69Ga(IMP466) (peptide),IC50,[2],13 nM
^125I-Bombesin (Perkin-Elmer) (peptide),EC50,[3],59 nM
commercially available BBN peptide (positive control),IC50,[4],24.4 nM
